The nanobody polyreactivity screen of Harvey et al. (2022)

Assay: yeast display, Sf9 membrane polyspecificity reagent, FACS + sequencing; frameworks hold sequencing errors
How it was run: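 Sorting gates, low and high (top ~1%), were placed on anti-HA fluorescence to track expression and on streptavidin fluorescence to track reagent binding. A clone's polyreactivity label is taken from the gate it came out of. The reagent was 10% biotinylated, detergent-solubilized Sf9 membrane, applied for 1 hour at 4 °C to galactose-induced yeast display cells.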

Row | Sequence | polyreactivity (PSR sort gate)
1 | QVQLVESGGGLVQAGGSLRLSCAASGSYFTYNRMGRYRQAPGKEREFVAANTWTGGSTYADSVKGRFTISRDNAKYTVYLQMNSLKPEDTAVYYCAAVRRFSWYTPVTTRRYYYWGQGTQVTVSS | high polyreactivity
2 | QVQLVESGGGLVQAGGSLRLSCAASGITFSYYAMGWYRQAPGKERELVAAISGSGTSTYYADSVKGRFTISRDNAKNTVYFQMNSLKPEDTAVYYCAAGPPRKPGYYYWGQGTQVTVSS | high polyreactivity
3 | QVQLVESGGGLVQAGGSLRLSCAASGRTFYYYAMGWYRQAPGKEWELVAAIRGGGGSTYADSVKGRFTISRDNAKNTVYLQMNSLKPEDTAVYYCNVVRTGRYPGFLTFDYWGQGTQVTVSS | high polyreactivity
4 | QVRLVESGGGLVQAGGSLRLSCAASGRIFYRYAIGWYRQAPGKERELVAAISSSGGSTYYADSVKGRFTISRDNAKNTVYLQMNSLKPEDTAVYYCAADAGSINSGYDYWGQGTQVTVSS | low polyreactivity
5 | QVQLVESGGGLVQAGGSLRLICAASGFILKYNAMGWYRQAPGKERELVAAISSNGGRTYYADSVKGRFTISRDNAMNTVYLQMNSLKPVDTAVYYCAAGRLQPVLGGYWGQGTQVTVSS | low polyreactivity
6 | QVQLVESGGGLVQAGGSLRLSCAASGRILYFYIGWYRQAPGTEREFVADISSTTSTYYADSVKGRFTISRDNAKNTVYLQMKSLKPEDTAVYYCAAPGDGYAYPIVWYGYSGYYYWGQGTQVTVSS | low polyreactivity
7 | QVQLVESGGGLVQAGGSLRLSCAASGITFYINGMGWYRQAPGKEREFVAAIYDGVNTYYADSVKGRFTISRDNAKNTVYLQMNSLKPEDTAVYYCAADYPPARWEMEYWGQGTQVTVSS | low polyreactivity
8 | QVQLEESGGGLVQAGGSLRLSCAASGITIWGYTMGWYRQAPGKERELVAAITSTGSTYYADSVKGRFTISRDNAKNTVYLQMNSLKPEDTSVYYCAATRGSSEYYYWGQGTQVTVSS | low polyreactivity
9 | QVQLVESGGGLVQAGGSLRLSCAASGRTFSHNAMGWYRQAPGKERELVATISWNGGRTYYADSVKGRFTISRDNAKNTVYLQMNSLKPEDTAVYYCADDRIWVLYRTYFSKYGYWGQGTQVTVSS | high polyreactivity
10 | NVQLVESGGGLVQAGGSLRLSCAASGRTFNGYAMGWYRQAPGKERDLVASISWSGGRTYYADSVKGRFTISRDNAKNTVYLQMNSLKPEDTAVYYCAATFVNVVGYDYWGQGTQVTVSS | high polyreactivity
11 | QVQLVESVGGLVQAGGSLRLSCAASGSIFRLYAMGWYRQAPGKERELVAAITWSGGSTYYADSVKGRFTISRDNAKNTVYLQMNSLKPEDTAVYYCNALVGGYRSAIFGYWGQGTQVTVSS | high polyreactivity
12 | QVQLVESGGGLVQAGGSLRLSCAASGSIFGGYAMGWYRQAPGKEGELVAAISWSSSSTYYADSVKGRFTMSRDNAKNTVYLQMNSLKPEDTAVYYCATGIYPQTSDYDYWGQGTQVTVSS | low polyreactivity
13 | QVQLVESGGGLVQAGGSLRLSCAASGSIFDDYAMGWYRKAPGKERELVAAITSGGSTYYADSVKGRFTISRDNAKNTVYLQMNSLKPEDTAVYYRATRYHWSSSFAPVGAYGYWGQGTQVTVSS | low polyreactivity
14 | QVQLVESGGGLVQAGGSLRLSCAASGSTFYWYTMGWYRQAPGKERELVARISSSGSTNYADSVKGRFTISRDNAKNTVYLQMNSLKPEDTAVYYCNKDWIYRGYDYWGQGTQVTVSS | high polyreactivity
15 | QVQLVESGGGLVQAGGSLRLSCAASGRIFNYYAMGSYRQAPGKERDLVAAITSRGGSTYYADSVKGRFTISRDNAKNTVYLQMNSLNPEDTAVYYCNTRVWYPGTIHPVDYWGQGTQVTVSS | low polyreactivity
16 | QVQLVESGGGLVQAGGSLRLSCAASGNTLHVYAMGWYRQAPGKERELVARITGGGRTYYADSVKGRFTISRDNAKNTVYLQMNSLKTEDTAVYYCATDYYGHKVLYDYWGQGTQVTVSS | low polyreactivity

Row | Sequence | polyreactivity (PSR sort gate)
17 | QVQLVESGGGLVQAGGSLRLSCAASGSTFTGYAMGWYRQAPGKERELVAAISRSVGRTYYADSVKGRFTISRDNAKNTVYLQMNSLKPEETAVYYCAADVFLTGSRNYYWGQGTQVTVSS | high polyreactivity
18 | QVQLVESGGGLVQAGGSLRLSCAATGLTFSTNTMGWYRQAPGKEREFVAAITARGGRTYYADSVKGRFTISRDNAKNTVYLQMNCLKPEDTAVYYCAANAYTYYARIGFDYWGQGTQVTVSS | high polyreactivity
19 | QVHLVESGGGLVQAGGSLRLSCAASGIIFYRYAMGWYRQAPGKERELVAAISWRGTSTYYADSVKARFTISRDNANNTVYLQMNSLKPEDTEVYYCNAGVRRKYGEYYYWGQGTQVTVSS | high polyreactivity
20 | QVQLVESGGGLVQAGGSLRLICAASGGIFGSYAMGWYRQAPGKEREFVAAIRYGSGSTYYADSVKGRFTISRDNAKNTVYLQMNSLKPEDTAVYYCATEYWGVYGYGFIYDYWGQGTQVTVSS | low polyreactivity
21 | QDQLVESGGGLVQAGGSLRLSCAASGRIFKVYAMGRYRQAPGKERELVAAITRNTGSTYYADSVKGRFTISRDNAKNTVYLQMNSLKPEDTSVFYCAVDVRSGRAYDYWGQGTQVTVSS | high polyreactivity
22 | QVQLVESGGGLVQAAGSLRLSCAASGSIFGAYAMGWYRQAPGKERELVAAINYGGATTYYADSVKGRFTISRDNAKNTVYLQMNSLKPEDTAVYYCAADYLYAYGDVAVVYGWYAYYYWGQGTQVTVSS | low polyreactivity
23 | QVQLVESGGGLVQAGGSLRLSCAASGFTFVSYAMGWSRQAPGKERELVAVISKSGSRTSYAESVKGRFTISRDNAKNTVYLQMNSLKPEDTAVYYCAVYYTRIGPRYDYWGQGTQVTVSS | high polyreactivity
24 | QVQLVESGGGLVQAGGSLRLSCAASGSTFDNTMGWYRQEPGKEKEFVATISWRGGSTYYADSVKGRFTISRDNAKNTVYLQMNSLKPEDTAVYYCAAEVDYRVYWNEVDYWGQGTQVNVSS | low polyreactivity
25 | QVQLVESGGGLVQAGGSLRLSCAASGLIIYSNAMGWYRQAPRKERELVAAINYSGGRTYYADSVKGRFTISRDNAKNTVYLQMNSLKPEDTAVYYCAARLYGAQRHGGYWGQGTQVTVSS | high polyreactivity
26 | QVQLVESGGGLVQAGGSLRLSCAASGITFTEYAMGWYRQAPGKERELVATISYGGGITYYADSVKGRFTISRDNAKNTVYLQMNSLKPEDTAVYYCAADGLSQVQRGMDYWGQGTQVTVSS | low polyreactivity
27 | QVQIVESGGGLVQAGGSLRLSCAASGFIIGKYTMGWYRQAPGKEREFVAAIRRSGASTYYADSVKGRFTISRDNAKNTVYLQMNSLKPEDTAVYYCSQAGYSPVYGYWGQGTQVTVSS | high polyreactivity
28 | QVQLVESGGGLVQAGGSLRLSCAASGNAIGWYRQAPGKERELVASINRSGGRTYYADSVKGRFTISRDNAKNTVYLQMNSLKPEDTAVYYCAARTHYDSDYWGQGTQVTVSS | low polyreactivity
29 | QVQLVESGGGLVQAGGSLRITCAASGSTFATYTIGWYRQPPGKEMELVAAISVSGSRTYADSVKGRFTISRDNAKNSVYLQMNSLKPEDTAVYYCAPRNYSVASYGEYDYWGQGTQVTVSS | high polyreactivity
30 | QVQLVESGGGLVQAGGSLRLSCAASGRTFTRYAMGWYRQAPGKERELVAAISRGGNTNYADSVKGLFTISRDNAKNTVYLQMNSLKPEDTAVYYCARVYGGYSVPSAYGSWGQGTQVTVSS | high polyreactivity
31 | QVQLVESGGGLVQAGGSLRLSCAASGLTFAFYAMGWYRQAPGKEREFVARIRTSAITYYADSVKGRFTISRDNAKTTVYLQMNSLKPEDTAVYYCAVSWNKLRDSSLYAYYYWGQGTQVTVSS | high polyreactivity
32 | QEQLQESGGGLVQAGGSLRLSCAASGSISPYIYMGWYRQAPGKERAFVAGIGYGGTTNYADSEKGRYTISRDNAKNTEYLQMNSLKPDDTALYYCNAAYFAGPADDKFDYWGQGTQVTVSS | low polyreactivity
